Sequences and labels used below:
B1: IQUB (parent)
chain: KIREKEEWIKLDYHRRHNPKTNED

The text below walks through data of the supplement of paper PMC10567573.
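Also: lentivirally expressed fusions sorted by FACS into six bins by GFP to DsRed ratio, PSI derived from sequencing read proportions per bin multiplied by bin number.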

Variants of B1 are the subject of this series. Briefly: protein stability index of a GFP-peptide fusion (GPS, HEK-293T) (PSI 1-6); higher = more stable. Particulars: c terminus: a fixed tail appended.
Take KIREFEEWIKLDYHRRHNPKTNED: the protein stability index is 3.67.

With KIRETEEWIKLDYHRRHNPKTNED, the protein stability index amounted to 4.21.

Take KIRESEEWIKLDYHRRHNPKTNED: the protein stability index stood at 4.14.

Take KIREQEEWIKLDYHRRHNPKTNED: the protein stability index was determined as 4.93.

In the case of KIREVEEWIKLDYHRRHNPKTNED, the protein stability index came to 3.4.

KIREEEEWIKLDYHRRHNPKTNED: the protein stability index came out at 4.45.

With KIRELEEWIKLDYHRRHNPKTNED, the protein stability index amounted to 3.13.

Turning to KIREREEWIKLDYHRRHNPKTNED, the protein stability index came out at 4.64.

Turning to KIREDEEWIKLDYHRRHNPKTNED, the protein stability index was 4.51.

For the variant KIREHEEWIKLDYHRRHNPKTNED, the protein stability index worked out at 4.51.

With KIREIEEWIKLDYHRRHNPKTNED, the protein stability index worked out at 2.39.

Turning to KIREMEEWIKLDYHRRHNPKTNED, the protein stability index is 3.04.

Consider KIREGEEWIKLDYHRRHNPKTNED, for which the protein stability index turned out to be 4.6.

KIREPEEWIKLDYHRRHNPKTNED: the protein stability index came out at 4.63.

For KIRENEEWIKLDYHRRHNPKTNED, the protein stability index stood at 4.7.

With KIREAEEWIKLDYHRRHNPKTNED, the protein stability index was found to be 3.99.

On to KIRECEEWIKLDYHRRHNPKTNED, for which the protein stability index stood at 4.09.

Regarding KIREWEEWIKLDYHRRHNPKTNED, the protein stability index worked out at 3.74.

With KYREKEEWIKLDYHRRHNPKTNED, the protein stability index was found to be 4.2.

On to KMREKEEWIKLDYHRRHNPKTNED, for which the protein stability index is 4.72.

KKREKEEWIKLDYHRRHNPKTNED: the protein stability index came to 4.8.

KAREKEEWIKLDYHRRHNPKTNED: the protein stability index was determined as 4.88.

In the case of KWREKEEWIKLDYHRRHNPKTNED, the protein stability index came to 4.26.

On to KTREKEEWIKLDYHRRHNPKTNED, for which the protein stability index was determined as 4.69.

With KQREKEEWIKLDYHRRHNPKTNED, the protein stability index came to 4.14.

In the case of KGREKEEWIKLDYHRRHNPKTNED, the protein stability index came out at 5.25.

Turning to KEREKEEWIKLDYHRRHNPKTNED, the protein stability index was 5.32.

Regarding KSREKEEWIKLDYHRRHNPKTNED, the protein stability index amounted to 5.09.

For KFREKEEWIKLDYHRRHNPKTNED, the protein stability index came to 4.19.

On to KRREKEEWIKLDYHRRHNPKTNED, for which the protein stability index came out at 4.58.

In the case of KDREKEEWIKLDYHRRHNPKTNED, the protein stability index was 5.17.

As for KPREKEEWIKLDYHRRHNPKTNED, the protein stability index came out at 3.84.

In the case of KCREKEEWIKLDYHRRHNPKTNED, the protein stability index was 4.62.

On to KNREKEEWIKLDYHRRHNPKTNED, for which the protein stability index came to 5.

On to KVREKEEWIKLDYHRRHNPKTNED, for which the protein stability index is 4.67.

Take KHREKEEWIKLDYHRRHNPKTNED: the protein stability index was 4.91.

Turning to KLREKEEWIKLDYHRRHNPKTNED, the protein stability index was determined as 4.74.

For KIRPKEEWIKLDYHRRHNPKTNED, the protein stability index worked out at 4.02.

KIRHKEEWIKLDYHRRHNPKTNED: the protein stability index was determined as 4.32.

For KIRSKEEWIKLDYHRRHNPKTNED, the protein stability index is 3.95.

Consider KIRMKEEWIKLDYHRRHNPKTNED, for which the protein stability index came to 4.06.

With KIRAKEEWIKLDYHRRHNPKTNED, the protein stability index is 4.38.

For the variant KIRDKEEWIKLDYHRRHNPKTNED, the protein stability index was found to be 4.48.

For KIRGKEEWIKLDYHRRHNPKTNED, the protein stability index came to 3.85.

Consider KIRYKEEWIKLDYHRRHNPKTNED, for which the protein stability index was 4.03.

Turning to KIRKKEEWIKLDYHRRHNPKTNED, the protein stability index worked out at 3.86.

For the variant KIRIKEEWIKLDYHRRHNPKTNED, the protein stability index amounted to 4.

Regarding KIRWKEEWIKLDYHRRHNPKTNED, the protein stability index turned out to be 3.75.

With KIRTKEEWIKLDYHRRHNPKTNED, the protein stability index came out at 4.

Turning to KIRCKEEWIKLDYHRRHNPKTNED, the protein stability index worked out at 3.71.

Regarding KIRQKEEWIKLDYHRRHNPKTNED, the protein stability index amounted to 3.82.

With KIRLKEEWIKLDYHRRHNPKTNED, the protein stability index was 3.81.

In the case of KIRVKEEWIKLDYHRRHNPKTNED, the protein stability index was 3.32.

Take KIRFKEEWIKLDYHRRHNPKTNED: the protein stability index turned out to be 3.84.

Take KIRRKEEWIKLDYHRRHNPKTNED: the protein stability index was determined as 3.99.

For KIRNKEEWIKLDYHRRHNPKTNED, the protein stability index worked out at 4.67.

Regarding KIKEKEEWIKLDYHRRHNPKTNED, the protein stability index came to 4.67.

Consider KIWEKEEWIKLDYHRRHNPKTNED, for which the protein stability index is 4.21.

As for KIDEKEEWIKLDYHRRHNPKTNED, the protein stability index stood at 5.34.

Regarding KIMEKEEWIKLDYHRRHNPKTNED, the protein stability index came out at 4.02.

As to KIGEKEEWIKLDYHRRHNPKTNED, the protein stability index was 5.16.

In the case of KIVEKEEWIKLDYHRRHNPKTNED, the protein stability index is 4.52.

Consider KILEKEEWIKLDYHRRHNPKTNED, for which the protein stability index is 4.22.

Turning to KICEKEEWIKLDYHRRHNPKTNED, the protein stability index stood at 4.8.

With KITEKEEWIKLDYHRRHNPKTNED, the protein stability index was 4.61.

On to KISEKEEWIKLDYHRRHNPKTNED, for which the protein stability index amounted to 4.6.

As to KIAEKEEWIKLDYHRRHNPKTNED, the protein stability index is 5.05.

Take KIYEKEEWIKLDYHRRHNPKTNED: the protein stability index was 4.29.

On to KIQEKEEWIKLDYHRRHNPKTNED, for which the protein stability index was found to be 4.6.

In the case of KIEEKEEWIKLDYHRRHNPKTNED, the protein stability index was 5.08.

Turning to KINEKEEWIKLDYHRRHNPKTNED, the protein stability index was 4.72.

KIIEKEEWIKLDYHRRHNPKTNED: the protein stability index was determined as 4.35.

Turning to KIPEKEEWIKLDYHRRHNPKTNED, the protein stability index is 4.97.

KIFEKEEWIKLDYHRRHNPKTNED: the protein stability index turned out to be 4.3.

For the variant KIHEKEEWIKLDYHRRHNPKTNED, the protein stability index turned out to be 4.67.

For LIREKEEWIKLDYHRRHNPKTNED, the protein stability index worked out at 4.15.

Regarding IIREKEEWIKLDYHRRHNPKTNED, the protein stability index came out at 4.02.

On to GIREKEEWIKLDYHRRHNPKTNED, for which the protein stability index amounted to 5.15.

Consider WIREKEEWIKLDYHRRHNPKTNED, for which the protein stability index turned out to be 3.75.

Take YIREKEEWIKLDYHRRHNPKTNED: the protein stability index turned out to be 2.98.

Take TIREKEEWIKLDYHRRHNPKTNED: the protein stability index came to 4.87.

Consider QIREKEEWIKLDYHRRHNPKTNED, for which the protein stability index came to 4.96.

As for CIREKEEWIKLDYHRRHNPKTNED, the protein stability index stood at 4.07.

In the case of MIREKEEWIKLDYHRRHNPKTNED, the protein stability index is 4.14.

Consider SIREKEEWIKLDYHRRHNPKTNED, for which the protein stability index was determined as 4.62.

For PIREKEEWIKLDYHRRHNPKTNED, the protein stability index is 4.99.

In the case of DIREKEEWIKLDYHRRHNPKTNED, the protein stability index stood at 4.99.

In the case of AIREKEEWIKLDYHRRHNPKTNED, the protein stability index was 4.79.

For NIREKEEWIKLDYHRRHNPKTNED, the protein stability index worked out at 5.44.

Regarding VIREKEEWIKLDYHRRHNPKTNED, the protein stability index came out at 4.52.

With FIREKEEWIKLDYHRRHNPKTNED, the protein stability index was found to be 2.67.

For RIREKEEWIKLDYHRRHNPKTNED, the protein stability index was 4.68.

In the case of EIREKEEWIKLDYHRRHNPKTNED, the protein stability index came out at 4.62.

Turning to HIREKEEWIKLDYHRRHNPKTNED, the protein stability index was determined as 4.62.
